Data set [1] has as its target T1, PARP4 BRCT-WGR-CAT WT (human) (UniProt Q9UKK3).
T1 sequence: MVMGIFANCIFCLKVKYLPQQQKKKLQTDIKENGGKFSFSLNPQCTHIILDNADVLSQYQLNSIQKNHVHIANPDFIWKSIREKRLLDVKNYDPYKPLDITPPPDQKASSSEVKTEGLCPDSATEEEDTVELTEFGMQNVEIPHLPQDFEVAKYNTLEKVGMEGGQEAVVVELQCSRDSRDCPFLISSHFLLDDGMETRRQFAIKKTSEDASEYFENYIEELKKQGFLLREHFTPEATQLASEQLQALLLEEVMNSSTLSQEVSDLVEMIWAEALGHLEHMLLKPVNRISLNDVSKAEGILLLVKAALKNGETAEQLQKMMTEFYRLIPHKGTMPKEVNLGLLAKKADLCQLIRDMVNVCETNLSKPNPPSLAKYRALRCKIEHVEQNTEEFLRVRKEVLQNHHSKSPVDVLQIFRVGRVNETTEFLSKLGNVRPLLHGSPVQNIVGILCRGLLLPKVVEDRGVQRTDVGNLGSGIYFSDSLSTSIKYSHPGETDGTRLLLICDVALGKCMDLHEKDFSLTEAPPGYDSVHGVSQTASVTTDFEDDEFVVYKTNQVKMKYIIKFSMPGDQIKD
In words: EMSA. Conditions: FP: 50 mM Tris pH 7.5, 50 mM NaCl, 1 mM MgCl2, 0.05% NP40, 2 mM DTT, 5% glycerol, 25 ug/ml BSA, room temp 30 min; EMSA: 50 mM Tris pH 7.5, 50 mM NaCl, 4% …. (In general: Mobility shift assays separate free from complexed probe on a gel.)

The next data set addresses T2, PARP4 WGR-CAT (human) (UniProt Q9UKK3).
T2 sequence: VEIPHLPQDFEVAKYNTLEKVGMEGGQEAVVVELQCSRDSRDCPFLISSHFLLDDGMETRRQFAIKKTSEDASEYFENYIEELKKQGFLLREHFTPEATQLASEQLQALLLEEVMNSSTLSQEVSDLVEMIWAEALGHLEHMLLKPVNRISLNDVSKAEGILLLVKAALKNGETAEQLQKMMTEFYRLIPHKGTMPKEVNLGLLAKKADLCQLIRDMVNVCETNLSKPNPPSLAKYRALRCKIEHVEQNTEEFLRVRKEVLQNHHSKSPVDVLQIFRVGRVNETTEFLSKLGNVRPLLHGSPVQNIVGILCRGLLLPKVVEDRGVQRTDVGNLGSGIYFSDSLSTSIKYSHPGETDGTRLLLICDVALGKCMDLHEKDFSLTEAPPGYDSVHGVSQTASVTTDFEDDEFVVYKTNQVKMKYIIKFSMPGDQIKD
In words: FP. Conditions: FP: 50 mM Tris pH 7.5, 50 mM NaCl, 1 mM MgCl2, 0.05% NP40, 2 mM DTT, 5% glycerol, 25 ug/ml BSA, room temp 30 min; EMSA: 50 mM Tris pH 7.5, 50 mM NaCl, 4% ….

In general, Kd refers to the free concentration of one partner at which half of the binding sites on the other are occupied at equilibrium, for simple one-to-one binding. Lower therefore signals a tighter complex. Regarding CCGCGGGC / GCUCAGCGG [Probe 3], the Kd in data set [1] amounted to 11 µM.

Take CCGCGGGC / GCUCGCGG [Probe 4]: the Kd in data set [1] turned out to be 7 µM. Against the preceding sequence, the Kd is about 1.6-fold lower.

In the data set with PARP4 WGR-CAT (human), “GGCUGGCUUUAGCUCAGCGGUUACUUCGCGUGUCAUCAAACCACCUCUCUGGGUUGUUCGAGACCCGCGGGCGCUCUCCAGCCCUCUU [vtRNA1-3]” showed a Kd of 93 µM.

The record behind these values is PMC12212138.
